Reference: paper PMC10786891, “Massively parallel profiling of RNA-targeting CRISPR-Cas13d”
Numbering of substitutions follows the chain as printed. In names and notes the source's numbering stands.

Target: T1, EsCas13d, nuclease-dead (Eubacterium siraeum, UniProt B0MS50, R295A;H300A;R849A;H854A)
T1 sequence: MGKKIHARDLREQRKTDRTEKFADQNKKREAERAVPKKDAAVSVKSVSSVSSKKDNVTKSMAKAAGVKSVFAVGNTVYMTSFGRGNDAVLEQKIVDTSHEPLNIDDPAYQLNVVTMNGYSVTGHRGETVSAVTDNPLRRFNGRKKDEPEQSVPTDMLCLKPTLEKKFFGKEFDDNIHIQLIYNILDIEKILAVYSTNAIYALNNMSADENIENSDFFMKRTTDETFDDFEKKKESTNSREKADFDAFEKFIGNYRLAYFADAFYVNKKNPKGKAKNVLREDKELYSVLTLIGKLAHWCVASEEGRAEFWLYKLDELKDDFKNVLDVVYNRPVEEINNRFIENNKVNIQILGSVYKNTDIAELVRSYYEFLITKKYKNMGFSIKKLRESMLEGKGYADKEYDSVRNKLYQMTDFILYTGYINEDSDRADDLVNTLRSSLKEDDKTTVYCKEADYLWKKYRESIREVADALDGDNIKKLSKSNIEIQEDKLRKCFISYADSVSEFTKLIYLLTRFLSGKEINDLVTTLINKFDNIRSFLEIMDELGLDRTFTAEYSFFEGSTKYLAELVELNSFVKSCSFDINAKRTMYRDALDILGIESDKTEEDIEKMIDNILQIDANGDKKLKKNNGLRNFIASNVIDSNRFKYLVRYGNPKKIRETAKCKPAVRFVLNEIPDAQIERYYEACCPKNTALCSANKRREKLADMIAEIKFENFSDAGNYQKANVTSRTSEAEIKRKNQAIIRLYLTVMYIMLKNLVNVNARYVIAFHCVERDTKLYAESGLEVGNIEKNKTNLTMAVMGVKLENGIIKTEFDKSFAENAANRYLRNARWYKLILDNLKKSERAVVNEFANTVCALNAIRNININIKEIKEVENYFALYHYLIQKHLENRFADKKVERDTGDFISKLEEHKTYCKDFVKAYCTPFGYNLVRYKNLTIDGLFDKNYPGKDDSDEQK
Assay: crRNA (strand 1, pre-loaded); Mg2+; 40 mM Tris-HCl pH 7.5, 150 mM NaCl, 6 mM MgCl2, 1 mM DTT, 0.1% Tween-20, 0.2 mg/ml BSA; 25 C; 10 min per concentration, then washed
Conditions: tags: His6-TwinStrep-SUMO cleaved; N-terminal SNAP kept (SNAP-Surface 488); label: 3' end held by stalled T7 RNA polymerase

B1: target 2 MT 5'PFS CUU 3'PFS AGC (mixed)
RNA 1: CACCCGUGCAAAAUUGCAGGGGUCUAAAACCUUCUCCAAAUUGUUUCAUCCU
RNA 2: GGGAAUGGAUCCACAUCUACGAAUUCCUUAGGAUGAAACAAUUUGGAGAAGAGCAGAUCGGAAGAGCACACGU
Kd: 2.28 ± 0.22 nM

B2: target 2 MT 5'PFS UCU 3'PFS UCC (mixed)
RNA 1: B1 RNA 1
RNA 2: B1 RNA 2 with C27U, U28C, A52U, G53C
Kd: 7.2 ± 0.7 nM

B3: target 2 MT 5'PFS GUG 3'PFS AAU (mixed)
RNA 1: B1 RNA 1
RNA 2: B1 RNA 2 with C27G, U29G, G53A, C54U
Kd: 8.6 ± 1 nM

B4: target 2 MT 5'PFS AGG 3'PFS UAA (mixed)
RNA 1: B1 RNA 1
RNA 2: B1 RNA 2 with C27A, U28G, U29G, A52U, G53A, C54A
Kd: 4.9 ± 1.1 nM

B5: target 2 MT 5'PFS CUU 3'PFS CGA (mixed)
RNA 1: B1 RNA 1
RNA 2: B1 RNA 2 with A52C, C54A
Kd: 3.4 ± 0.4 nM

B6: target 2 MT 5'PFS GCC 3'PFS AUG (mixed)
RNA 1: B1 RNA 1
RNA 2: B1 RNA 2 with C27G, U28C, U29C, G53U, C54G
Kd: 12.9 ± 1.1 nM

B7: target 2 MT 5'PFS UAA 3'PFS UAA (mixed)
RNA 1: B1 RNA 1
RNA 2: B1 RNA 2 with C27U, U28A, U29A, A52U, G53A, C54A
Kd: 4.8 ± 1.3 nM

B8: target 2 MT 5'PFS AAG 3'PFS CUC (mixed)
RNA 1: B1 RNA 1
RNA 2: B1 RNA 2 with C27A, U28A, U29G, A52C, G53U
Kd: 10 ± 1.6 nM

B9: target 2 MT 5'PFS UAA 3'PFS UAC (mixed)
RNA 1: B1 RNA 1
RNA 2: B1 RNA 2 with C27U, U28A, U29A, A52U, G53A
Kd: 7.1 ± 1.6 nM

B10: target 2 MT 5'PFS GCC 3'PFS AUA (mixed)
RNA 1: B1 RNA 1
RNA 2: B1 RNA 2 with C27G, U28C, U29C, G53U, C54A
Kd: 10.4 ± 1.8 nM

B11: target 2 MT 5'PFS GCC 3'PFS AUC (mixed)
RNA 1: B1 RNA 1
RNA 2: B1 RNA 2 with C27G, U28C, U29C, G53U
Kd: 12.7 ± 1.1 nM

B12: target 2 MT 5'PFS GAG 3'PFS CCU (mixed)
RNA 1: B1 RNA 1
RNA 2: B1 RNA 2 with C27G, U28A, U29G, A52C, G53C, C54U
Kd: ~130 nM

B13: target 2 MT 5'PFS CUU 3'PFS CGC (mixed)
RNA 1: B1 RNA 1
RNA 2: B1 RNA 2 with A52C
Kd: 5 ± 0.4 nM

B14: target 2 MT 5'PFS ACG 3'PFS UAG (mixed)
RNA 1: B1 RNA 1
RNA 2: B1 RNA 2 with C27A, U28C, U29G, A52U, G53A, C54G
Kd: 4.6 ± 1.1 nM

B15: target 2 MT 5'PFS CUU 3'PFS AGU (mixed)
RNA 1: B1 RNA 1
RNA 2: B1 RNA 2 with C54U
Kd: 3.1 ± 0.4 nM

B16: target 2 MT 5'PFS GAG 3'PFS CCA (mixed)
RNA 1: B1 RNA 1
RNA 2: B1 RNA 2 with C27G, U28A, U29G, A52C, G53C, C54A
Kd: 17.2 ± 2.6 nM

B17: target 2 MT 5'PFS AAA 3'PFS AAA (mixed)
RNA 1: B1 RNA 1
RNA 2: B1 RNA 2 with C27A, U28A, U29A, G53A, C54A
Kd: 4.9 ± 1.3 nM

B18: target 2 MT 5'PFS AAG 3'PFS CUG (mixed)
RNA 1: B1 RNA 1
RNA 2: B1 RNA 2 with C27A, U28A, U29G, A52C, G53U, C54G
Kd: 4.9 ± 0.7 nM

B19: target 2 MT 5'PFS AGU 3'PFS AAG (mixed)
RNA 1: B1 RNA 1
RNA 2: B1 RNA 2 with C27A, U28G, G53A, C54G
Kd: 11 ± 2.4 nM

B20: target 2 MT 5'PFS AGU 3'PFS AAU (mixed)
RNA 1: B1 RNA 1
RNA 2: B1 RNA 2 with C27A, U28G, G53A, C54U
Kd: 7.6 ± 1 nM

B21: target 2 MT 5'PFS UAU 3'PFS UCG (mixed)
RNA 1: B1 RNA 1
RNA 2: B1 RNA 2 with C27U, U28A, A52U, G53C, C54G
Kd: 27.2 ± 3.2 nM

B22: target 2 MT 5'PFS CUU 3'PFS CGG (mixed)
RNA 1: B1 RNA 1
RNA 2: B1 RNA 2 with A52C, C54G
Kd: 2.9 ± 0.4 nM

B23: target 2 MT 5'PFS GUG 3'PFS AAC (mixed)
RNA 1: B1 RNA 1
RNA 2: B1 RNA 2 with C27G, U29G, G53A
Kd: 10.5 ± 1.6 nM

B24: target 2 MT 5'PFS CUU 3'PFS AGG (mixed)
RNA 1: B1 RNA 1
RNA 2: B1 RNA 2 with C54G
Kd: 2.4 ± 0.4 nM

B25: target 2 MT 5'PFS UGA 3'PFS AGA (mixed)
RNA 1: B1 RNA 1
RNA 2: B1 RNA 2 with C27U, U28G, U29A, C54A
Kd: 5.4 ± 0.5 nM

B26: target 2 MT 5'PFS GAG 3'PFS CCG (mixed)
RNA 1: B1 RNA 1
RNA 2: B1 RNA 2 with C27G, U28A, U29G, A52C, G53C, C54G
Kd: 6.77 ± 0.3 nM

B27: target 2 MT 5'PFS CUU 3'PFS CGU (mixed)
RNA 1: B1 RNA 1
RNA 2: B1 RNA 2 with A52C, C54U
Kd: 3.8 ± 0.5 nM

B28: target 2 MT 5'PFS AAG 3'PFS CUA (mixed)
RNA 1: B1 RNA 1
RNA 2: B1 RNA 2 with C27A, U28A, U29G, A52C, G53U, C54A
Kd: 4.4 ± 0.6 nM

B29: target 2 MT 5'PFS GUG 3'PFS AAG (mixed)
RNA 1: B1 RNA 1
RNA 2: B1 RNA 2 with C27G, U29G, G53A, C54G
Kd: 12.4 ± 1.8 nM

B30: target 2 MT 5'PFS GUG 3'PFS AAA (mixed)
RNA 1: B1 RNA 1
RNA 2: B1 RNA 2 with C27G, U29G, G53A, C54A
Kd: 9.7 ± 1.4 nM

B31: target 1 G13U,G15A (mixed)
RNA 1: CACCCGUGCAAAAAUGCAGGGGUCUAAAACUGAGCGGAUAACCUCUCUAUGG
RNA 2: GGGAAUGGAUCCACAUCUACGAAUUCGUACCAUAGAAAUGUUAUCCGCUCACCGAGAUCGGAAGAGCACACGU
Kd: 22 ± 4 nM

B32: target 1 insC 3' of 9,insA 3' of 2 (mixed)
RNA 1: B31 RNA 1
RNA 2: GGGAAUGGAUCCACAUCUACGAAUUCGUACCAUAGAGAGGUUACUCCGCUCAACCGAGAUCGGAAGAGCACACGU
Kd: 12.3 ± 0.7 nM

B33: target 1 insG 3' of 19,insA 3' of 11 (mixed)
RNA 1: B31 RNA 1
RNA 2: GGGAAUGGAUCCACAUCUACGAAUUCGUACCAUGAGAGAGGUAUAUCCGCUCACCGAGAUCGGAAGAGCACACGU
Kd: 89 ± 16 nM
